Test results from patent US6890526B2, “Methods and reagents for the treatment of multiple sclerosis” (Vanderbilt University, priority 1997, dated 2005).

What was measured:
[1] = tested on: MOMP gene of C. pneumoniae; assay: PCR/Southern hybridization of CSF for the MOMP gene; conditions: CSF PCR signal for the MOMP gene of C. pneumoniae after antibiotics; all patients PCR-positive before therapy
Description: To at least 300 μl of CSF sample, 200 μl of HBSS containing 0.25% trypsin and 1 mM EDTA at pH 7.2 was added to achieve a final concentration of 0.1% trypsin, and the sample vortexed and then incubated at 37° C. for 30 minutes. Following incubation, the sample was again vortexed, centrifuged for 45 minutes at 12,000×g in a microcentrifuge, and the pellet resuspended in 20 μl of lysis buffer (0.5% sodium dodecylsulfate (SDS), 1% NP40, 0.2 M NaCl, 10 μM DTT, 10 mM EDTA, 20 mM Tris-HCl at pH 7.5). To this was added 8 μl of proteinase K (20 μg/ml; Boehringer-Mannheim, Indianapolis, Ind.), after which the specimen was mixed and incubated overnight at 37° C. […]
PCR was carried out using the entire MOMP gene (1.2 kb) using Deep Vent polymerase in the manufacturer's buffer (New England Biolabs, Boston, Mass.) with no additional MgCl2. […] PCR reactions were analyzed by electrophoresis in 1% agarose gel for 45 minutes at 95 volts. For confirmation and enhanced sensitivity, the gels were further analyzed by Southern hybridization using a digoxigenin-labeled (DIG, Boehringer-Mannheim) MOMP gene probe from the TWAR strain of C. pneumoniae (ATCC VR-1310). […]
Nested PCR primers were chosen within the MOMP which are C. pneumoniae specific (located in variable domains 1 and 4) and yield a 727 bp band. […] PCR reactions were analyzed by electrophoresis in 1% agarose gel for 45 minutes at 95 volts. […]

MS patients [2] = assay: Treatment of MS patients with combinations of anti-chlamydial agents, case histories (Tables 8-10); assay type: in vivo, human; conditions: patient; drug stopped, later phased back in
Text: The case histories for these patients are described in Table 9.

MS patients [3] = assay: Long-term combination therapy of 12 progressive MS patients, EDSS (Table 11); assay type: in vivo, human; conditions: patient #12; azithromycin substituted
Description: All 12 patients were positive by PCR for the MOMP gene of C. pneumoniae in the CSF. In 10 of 12 patients, the highest Expanded Disability Status Scale (EDSS; Kurtzke, Neurology 33:1444-1152, 1983) score reached was sustained for six months. […] The antibiotic regimen in eight of 12 patients was a combination of rifampin (300 mg twice daily), amoxicillin (500 mg twice daily) and probenecid (500 mg daily).

iNOS = assay: Measurement of NO production (nitrite, Greiss reagent) in splenic macrophage culture supernatants; assay type: cell-based, mouse
Description: (§1) Splenocytes were washed twice in PBS and plated in 24-well culture plates (Corning, Corning, N.Y.) in Dulbecco's minimal essential medium (DMEM; GIBCO BRL, Gaithersburg, Md.) containing 10% fetal calf serum (FCS; Hyclone, Logan, Utah) at 37° C. for two hours. Non-adherent cells were washed away by gentle rinsing in warm medium, and the macrophages were allowed to adhere to the plastic wells overnight. For optimal growth of macrophages, colony stimulating factor-1 (CSF-1) obtained from culture supernatants of LADMAC cells (American Type Tissue Collection (ATCC), Manassas, Va.) was added to reach a final concentration of 20%. After reaching confluence, cells were removed from the plastic wells by gentle trituration and examined for their purity by staining with fluoroscein-conjugated anti-CD11b and anti-I-As (clone 10-3.6) antibodies.
EB antigens were prepared from concentrated C. pneumoniae EBs by treating them with 25 mM DTT, 2% 2-mercaptoethanol, and 2% dodecylsulfate (SDS) for 5 minutes at 100° C. Treated EBs were sonicated, centrifuged (500×g for 30 minutes at room temperature) and the supernatant resuspended at 2 μg/ml protein in PBS pH 7.4. Concentrated C. pneumoniae EBs were obtained by growing C. pneumoniae (VR-1310; ATTC) in 25 ml flasks containing a confluent growth of HL cells (Human Lung Carcinoma Cells; Washington University Foundation, Seattle, Wash.) in DMEM and 10% FCS . Infection was facilitated by two washes with Hank's balanced salt solution (HBSS; GIBCO) followed by a 20 minute pre-incubation with diethylaminoethyl-dextran (30 μg/ml) (DEAE-Dextran; GIBCO) in HBSS. The infectious inoculum (ATCC VR-1310) was added to the flasks in 2 ml of serum-free media. The flasks were then centrifuged at 1,200×g for 1 hour at 4° C. To the spun flasks was added 2 ml of Iscoves medium (GIBCO) containing 4 μg/ml cyclohexamide, 20% FCS, 4 mM L-glutamine (Sigma), and 100 μg/ml gentamicin (Sigma). The flasks were then incubated at 35° C. for three days at which time the infected cells begin to lyse and release EBs. On day 4, the culture flasks were sonicated for 20 seconds, and the cell debris removed by centrifugation at 600×g for five minutes at room temperature. The supernatant containing the infectious EBs was centrifuged at 18,000×g for 30 minutes, and the pellet resolubilized in water containing 25 mM DTT, 2% 2-mercaptoethanol, and 2% SDS.
Preparation of purified rMOMP was performed as follows. The full-length native C. pneumoniae MOMP gene was expressed in the pET-32/a (+) E. coli expression system using a polyhistidine tag (Novagen, Madison, Wis.). Briefly the MOMP was amplified under the same PCR conditions with a NcoI extension on the forward primer and a NotI extension on the reverse primer. The 5′ to 3′ sequence of the forward primer was AGCTTACCATGGTGAATGAAAAAACTCTTAAAGTCGGCG (SEQ ID NO: 9) and the reverse primer was ATATGCGGCCGCTCATTAGAATCTGAACTGACCAGATACG (SEQ ID NO: 10). The product was cut with NotI and NcoI and ligated into the multiple cloning site in a previously linearized pET vector. E. coli was transformed and selectively grown, lysed with a French press, and the protein extract was run over a Ni-chelate column and eluted with […]. […]
NO is rapidly oxidized to nitrite in culture medium. […] After a 10 minute incubation at room temperature, the absorbance was read at 550 nm. Nitrite concentrations were calculated from a sodium nitrite standard curve.

iNOS (NOS2) gene = assay: RT-PCR for iNOS (NOS2) gene products in splenic macrophages; assay type: cell-based, mouse; conditions: β-IFN alone; compared with GAPDH mRNA (FIG. 12A)
Description: as §1
Mouse splenic macrophages were homogenized in TRI reagent (Molecular Research Center, Cincinnati, Ohio), and total RNA was extracted according to the manufacturer's protocol. […]

IL-12/p40 = assay: Sandwich ELISA for IL-12/p40 in macrophage culture supernatants; assay type: cell-based, mouse
Description: as §1
IL-12/p40 in culture supernatants was quantitated using sandwich ELISA methodology. Antibody C17.15 was coated onto ELISA plates at 2 μg/ml in 100 μl of carbonate buffer at pH 9.3. After overnight incubation at 4° C., excess antibody was washed off, and the plates were blocked by addition of PBS containing 3% BSA. Samples and standards were plated in triplicate and incubated overnight at 4° C. […] The absorbance was read at 405 nm and sample concentrations of IL-12/p40 were calculated from a rIL-12/p40 standard curve.

Molecule: CC[C@H]1OC(=O)[C@H](C)[C@@H](O[C@H]2C[C@@](C)(OC)[C@@H](O)[C@H](C)O2)[C@H](C)[C@@H](O[C@@H]2O[C@H](C)C[C@H](N(C)C)[C@H]2O)[C@](C)(O)C[C@@H](C)CN(C)[C@H](C)[C@@H](O)[C@]1(C)O [azithromycin]
- PCR Signal Post-antibiotics [1]: Absent

Molecule: Cc1ncc([N+](=O)[O-])n1CCO [metronidazole, Metronidazole]
- side effects (MS patients [2]): side effects

Molecule: CO[C@H]1/C=C/O[C@@]2(C)Oc3c(C)c(O)c4c(O)c(c(/C=N/N5CCN(C)CC5)c(O)c4c3C2=O)NC(=O)/C(C)=C\C=C\[C@H](C)[C@H](O)[C@@H](C)[C@@H](O)[C@@H](C)[C@H](OC(C)=O)[C@@H]1C [rifampin]
- side effects (MS patients [3]): gastrointestinal side effects

B1: β-IFN: Murine β-IFN obtained commercially (Bio-Source International); type-1 interferon (protein, UniProt P01575 22-182, looked up)
Interferon beta: INYKQLQLQERTNIRKCQELLEQLNGKINLTYRADFKIPMEMTEKMQKSYTAFAIQEMLQNVFLVFRNNFSSTGWNETIVVRLLDELHQQTVFLKTVLEEKQEERLTWEMSSTALHLKSYYWRVQRYLKLMKYNSYAWMVVRAEIFRNFLIIRRLTRNFQN
- nitrite levels (iNOS; 10 U of β-IFN added to EB antigen-treated macrophages, 48 hours (FIG. 10)): 27.3 ± 0.4 µM
- increase in NO (iNOS; 10 U of β-IFN, macrophages cultured with LPS): 35%
- increase in the nitrite level (iNOS; 10 U of β-IFN, macrophages incubated with 2 μg/ml of rMOMP): 47%
- nitrite levels in supernatants (iNOS; prior addition of 1000 U of β-IFN to EB antigen-treated cultures, 48 hours (FIG. 9)): 19.6 µM
- nitrite levels in macrophage culture supernatants (iNOS; β-IFN alone, no antigen): did not increase nitrite levels
- RT-PCR signals for NOS2 gene (iNOS (NOS2) gene): increased RT-PCR signals for NOS2 gene
- suppression of induction of IL12/p40 (IL-12/p40; 10 U of β-IFN, EB antigens): 78%
- IL-12/p40 levels (IL-12/p40; macrophages pretreated with β-IFN, then EB antigens for 48 hours (FIG. 14)): 1.5 ± 0.09 ng/mL
